T1: CD30 (human, UniProt P28908 19-595)
T1 sequence (looked up): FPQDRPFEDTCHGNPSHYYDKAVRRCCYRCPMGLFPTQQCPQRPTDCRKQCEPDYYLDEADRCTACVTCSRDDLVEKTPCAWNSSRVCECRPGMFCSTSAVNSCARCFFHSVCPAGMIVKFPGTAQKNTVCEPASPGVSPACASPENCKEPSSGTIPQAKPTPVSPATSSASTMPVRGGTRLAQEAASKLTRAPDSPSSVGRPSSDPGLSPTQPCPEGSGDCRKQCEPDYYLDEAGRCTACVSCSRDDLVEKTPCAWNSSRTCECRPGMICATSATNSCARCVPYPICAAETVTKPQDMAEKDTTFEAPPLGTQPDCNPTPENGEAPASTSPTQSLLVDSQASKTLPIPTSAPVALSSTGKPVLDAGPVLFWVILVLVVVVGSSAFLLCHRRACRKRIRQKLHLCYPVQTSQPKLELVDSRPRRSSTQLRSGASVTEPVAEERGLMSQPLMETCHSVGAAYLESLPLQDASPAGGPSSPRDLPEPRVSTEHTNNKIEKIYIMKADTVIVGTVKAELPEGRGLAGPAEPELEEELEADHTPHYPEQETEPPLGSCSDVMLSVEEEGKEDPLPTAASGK

B1: Gm-Ki4(scFv) (other)
chain: IIGGREVIPHSRPYMASLQRNGSHLCGGVLVHPKWVLTAAHCLAQRMAQLRLVLGLHTLDSPGLTFHIKAAIQHPRYKPVPALENDLALLQLDGKVKPSRTIRPLALPSKRQVVAAGTRCSMAGWGLTHQGGRLSRVLRELDLQVLDTRMCNNSRFWNGSLSPSMVCLAADSKDQAPCKGDSGGPLVCGKGRVLAGVLSFSSRVCTDIFKPPVATAVAPYVSWIRKVTGRSAAEHEGDAAQPAMAQVKLQESGTELAKPGAAVKMSCKASGYTFTDYWMHWVKQRPGQGLEWIGYINPNTAYTDYNQKFKDKATLTADKSSSTAYMQLRSLTSEDSAVYYCAKKTTQTTWGFPFWGQGTTVTVSSGGGGSGGGGSGGGGSDIVLTQSPKSMAMSVGERVTLSCKASENVDSFVSWYQQKPGQSPKLLIYGASNRYTGVPDRFAGSGSGRDFTLTISSVQAEDLADYHCGQNYRYPLTFGAGTKLEIKR
B2: Gm-H22(scFv) (other)
chain: IIGGREVIPHSRPYMASLQRNGSHLCGGVLVHPKWVLTAAHCLAQRMAQLRLVLGLHTLDSPGLTFHIKAAIQHPRYKPVPALENDLALLQLDGKVKPSRTIRPLALPSKRQVVAAGTRCSMAGWGLTHQGGRLSRVLRELDLQVLDTRMCNNSRFWNGSLSPSMVCLAADSKDQAPCKGDSGGPLVCGKGRVLAGVLSFSSRVCTDIFKPPVATAVAPYVSWIRKVTGRSAAEHEGDAAQPAMAQVQLVESGGGVVQPGRSLRLSCSSSGFIFSDNYMYWVRQAPGKGLEWVATISDGGSYTYYPDSVKGRFTISRDNSKNTLFLQMDSLRPEDTGVYFCARGYYRYEGAMDYWGQGTPVTVSSGGGGSGGGGSGGGGSDIQLTQSPSSLSASVGDRVTITCKSSQSVLYSSNQKNYLAWYQQKPGKAPKLLIYWASTRESGVPSRFSGSGSGTDFTFTISSLQPEDIATYYCHQYLSSWTFGQGTKLEIK

Columns and labels:
CD30 = target: T1, CD30; test: cell-based or functional assay
[1] = target: CD64 (Fc gamma receptor I) (human, UniProt P12314 16-374); test: cell-based or functional assay
CD64 (Fc gamma receptor I), sequence (P12314 16-374, form in doubt): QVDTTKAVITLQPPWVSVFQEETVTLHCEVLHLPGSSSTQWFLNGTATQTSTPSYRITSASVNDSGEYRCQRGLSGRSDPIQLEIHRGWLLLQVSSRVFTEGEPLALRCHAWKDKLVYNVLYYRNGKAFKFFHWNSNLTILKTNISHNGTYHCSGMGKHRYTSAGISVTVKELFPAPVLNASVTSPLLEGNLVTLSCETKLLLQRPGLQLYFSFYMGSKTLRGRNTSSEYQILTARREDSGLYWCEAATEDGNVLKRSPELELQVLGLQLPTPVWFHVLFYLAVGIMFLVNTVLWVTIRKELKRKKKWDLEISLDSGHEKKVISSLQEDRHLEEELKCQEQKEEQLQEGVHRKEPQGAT

Binder	IC50, XTT viability assay on L540 cells (CD30) [nM]	IC50, XTT viability assay on Interferon γ stimulated HL60 cells [1] [nM]
B1	272	
B2		1.2

Reference: patent US20150291693A1 (FRAUNHOFER GESELLSCHAFT ZUR FORDERUNG DER ANGEWANDTEN …, published 2015)
